From patent publication US20250223358A1 (ANTENGENE BIOLOGICS, published 2025)
Like-named read-outs stand apart in the source and are kept apart here.

Key:
human CD3 [1] = target: T1, human CD3 (human, UniProt P07766 23-207; P04234 22-171; P09693 23-182); test: FACS on HEK293T-hCD3mix cells; also: test concentration or dose not given here
T1 construct: whole, on cells; also called hCD3; CD3 on Jurkat cells

human CD3 [2] = target: T1, human CD3; test: FACS on Jurkat cells; as to FACS MFI: test concentration or dose not given here
human CD3 [3] = target: T1, human CD3; test: cell-based or functional assay
human CD3 [4] = target: T1, human CD3; test: FACS on Jurkat cells; remark: listed apart in the source; as to FACS MFI: test concentration or dose not given here
human CD3 [5] = target: T1, human CD3; test: FACS on Jurkat cells; remark: listed apart in the source; as to FACS MFI: test concentration or dose not given here
human CD3 [6] = target: T1, human CD3; test: cell-based or functional assay; remark: listed apart in the source
human CD3 [7] = target: T1, human CD3; test: cell-based or functional assay; remark: listed apart in the source
human CD3 [8] = target: T1, human CD3; test: FACS on Jurkat cells; remark: listed apart in the source; as to FACS MFI: test concentration or dose not given here
cynomolgus CD3 = target: T2, cynomolgus CD3 (cynomolgus (Macaca fascicularis), UniProt Q95LI5 22-198; Q95LI8 22-171; Q95LI7 23-181); test: FACS on 293F-cynoCD3mix cells; also: test concentration or dose not given here
T2 construct: whole, on cells; composition of the 'mix' not defined; also called cynoCD3
T2 sequence (Q95LI5 22-198, chain 1 of 3): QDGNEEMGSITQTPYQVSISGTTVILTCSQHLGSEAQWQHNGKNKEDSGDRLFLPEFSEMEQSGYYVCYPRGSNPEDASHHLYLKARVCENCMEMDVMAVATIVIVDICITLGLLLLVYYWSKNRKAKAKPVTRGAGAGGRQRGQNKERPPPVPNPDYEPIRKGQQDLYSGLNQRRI
T2 sequence (Q95LI8 22-171, chain 2 of 3): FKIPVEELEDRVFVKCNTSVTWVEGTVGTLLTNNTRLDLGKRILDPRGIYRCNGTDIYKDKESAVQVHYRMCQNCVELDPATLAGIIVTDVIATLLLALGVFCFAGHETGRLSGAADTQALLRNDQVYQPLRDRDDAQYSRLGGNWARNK
T2 sequence (Q95LI7 23-181, chain 3 of 3): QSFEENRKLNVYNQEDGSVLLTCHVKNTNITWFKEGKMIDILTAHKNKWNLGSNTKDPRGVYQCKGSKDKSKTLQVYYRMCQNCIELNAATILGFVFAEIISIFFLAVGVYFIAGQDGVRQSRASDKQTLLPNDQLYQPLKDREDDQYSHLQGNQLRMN

T1 sequence (P07766 23-207, chain 1 of 3): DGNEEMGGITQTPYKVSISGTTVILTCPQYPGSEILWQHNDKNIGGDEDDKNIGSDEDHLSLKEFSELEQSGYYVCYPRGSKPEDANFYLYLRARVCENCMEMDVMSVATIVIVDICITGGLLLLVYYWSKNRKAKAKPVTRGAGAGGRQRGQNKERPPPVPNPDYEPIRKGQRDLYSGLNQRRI
T1 sequence (P04234 22-171, chain 2 of 3): as the sequence (Q95LI8 22-171, chain 2 of 3) above, with V5I, K15N, V20I, T32S, N33D, N34I, A64T, N74S, L83V, R141H counted along it
T1 sequence (P09693 23-182, chain 3 of 3): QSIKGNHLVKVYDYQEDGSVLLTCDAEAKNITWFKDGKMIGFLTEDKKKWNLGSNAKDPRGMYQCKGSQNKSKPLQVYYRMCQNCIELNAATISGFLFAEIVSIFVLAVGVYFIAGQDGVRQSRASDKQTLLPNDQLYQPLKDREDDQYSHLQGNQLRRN

B1: 2-F12-A6-G2 (antibody, V domains shown)
VH: EVQLVESRPGLVAPSQSLSITCTVSGFSLTSYGVSWVRQPPGKGLEWLGVIWGDGNTNYNSDLKTSLSISKDNSKSQVFLKLDSLQTDDTATYYCAKVSYWYFDVWGTGTTVTVSS
VL: DIQLTQPPASLSASVGETVTITCRASENIYSYLAWYQQKQGKSPQLLVYNAKTLPEGVPSRFSGSGSGTQFSLKINSLQPEDFGTYYCQHHYGTPPTFGTGTKLELK
notes: mouse monoclonal (hybridoma) antibody
- FACS MFI (human CD3 [1]): 53800 MFI

B2: ch8-B12-F9-B11 (antibody, V domains shown)
VH: EVQLVESGGGIVKPGGSRKLSCAASGFTFSDYGMHWVRQAPEKGLEWIAYISSASGKIYYADTVKGRFTISRDNAKNILFLQMTSLRSEDTAMYYCARVLRWSVNYVMDYWGQGTSVTVSS
VL: DIVMTQSPSSLAVSAGEKVTMNCESSQSVLYSSNQKNYLAWYQQKPGQSPKLLIYWASTRESGVPDRFTGTGSGTDFTLTISSVQAEDLAVYYCHQYLSSWTFGGGTKLEIK
- EC50 (human CD3 [2]): 18 nM
- Top FACS signal (human CD3 [2]): 2720
- EC50 (activation of Jurkat-NFAT-Luc cells) (human CD3 [3]): 11.3 nM
- Top FACS signal (activation of Jurkat-NFAT-Luc cells) (human CD3 [3]): 457

B3: 3-C6-C11-F12 (antibody, V domains shown)
VH: EVHLVESGGGLVQPGGSRKLSCAGSGFTFSTYGMHWVRQAPEKGLEWVAYISNGGSTIYYADSVKGRFTISRDNPNDTLFLHMTSLGSEDTAMYYCARPTWGGFAYWGQGTLVTVSA
VL: DIVLTQSPLSLPVSLGDQASISCRSSQSIAHSNGDTYLEWYLQNPGQSPKLLIYKVSNRISGVPDRFSGSGSGTDFTLKISRVEAEDLGVYYCFQGSHVPYTFGGGTKLEIK
notes: as for B1
- FACS MFI (human CD3 [1]): 21800 MFI

B4: ch40-C12-C10-E9 (antibody, V domains shown)
VH: EVQLQLSGPELVKPGASVKMSCKASGYTFSSYVIHWVKQKPGQGLEWIGYINPYNDVIKYNEKFKGKATLTSDKSSSTAYMELSSLTSEDSAVYYCARDSYYSYDGFAYWGQGTLVTVSA
VL: QIVLTQSPAIMSASPGEKVTMTCSASSSVSYMHWYQQKSGTSPKRWIYDTSKLASGVPARFSGSGSGTSYSLTISSMEAEDAATYYCQQWSSNPPTFGGGTKVEIK
- EC50 (human CD3 [2]): 1.01 nM
- Top FACS signal (human CD3 [2]): 2540
- EC50 (human CD3 [4]): 0.45 nM
- Top FACS signal (human CD3 [4]): 1620
- EC50 (human CD3 [5]): 0.41 nM
- Top FACS signal (human CD3 [5]): 2940
- EC50 (activation of Jurkat-NFAT-Luc cells) (human CD3 [3]): 24.2 nM
- Top FACS signal (activation of Jurkat-NFAT-Luc cells) (human CD3 [3]): 810
- EC50_Fold change (Jurkat-NFAT-luciferase activation, normalized to ch40-C12-C10-E9) (human CD3 [6]): 1 fold
- Top FACS signal_Fold change (Jurkat-NFAT-luciferase activation, normalized to ch40-C12-C10-E9) (human CD3 [6]): 1 fold
- EC50_Fold change (Jurkat-NFAT-luciferase activation, normalized to ch40-C12-C10-E9) (human CD3 [7]): 1 fold
- Top signal_Fold change (Jurkat-NFAT-luciferase activation, normalized to ch40-C12-C10-E9) (human CD3 [7]): 1 fold

B5: 40-C12-C10-E9 (antibody, V domains shown)
VH: EVQLQLSGPELVKPGASVKMSCKASGYTFSSYVIHWVKQKPGQGLEWIGYINPYNDVIKYNEKFKGKATLTSDKSSSTAYMELSSLTSEDSAVYYCARDSYYSYDGFAYWGQGTLVTVSA
VL: QIVLTQSPAIMSASPGEKVTMTCSASSSVSYMHWYQQKSGTSPKRWIYDTSKLASGVPARFSGSGSGTSYSLTISSMEAEDAATYYCQQWSSNPPTFGGGTKVEIK
notes: as for B1
- FACS MFI (human CD3 [1]): 13100 MFI

B6: 124E3D6 (antibody, V domains shown)
VH: QVQLQQPGTELVKPGASVKLSCKASGYTFTSYWMHWVKQRPGQGLEWIGNINPSNGDTNYNEKFKSKATLTVDKSSSTAYMQLSSLTSEDSAVYYCARDRSSQYYFDYWGQGTTLTVSS
VL: DIVMSQSPSSLAVSAGEKVTMSCKSSQSLLNSRTRKNYLAWYQQKPGQSPKLLIYWASTRESGVPDRFTGSGSGTDFTLTISSVQAEDLAVYYCKQSYNLRTFGGGTKLEIK
notes: as for B1
- FACS MFI (human CD3 [8]): 126 MFI
- FACS MFI (cynomolgus CD3): 400 MFI

B7: 126A11A4 (antibody, V domains shown)
VH: QVQLQQPGTELVKPGASVKLSCKASGYTFTSYWMHWVKQRPEQGLEWIGNINPSNGDTNYNEKFKSKATLTVDKASNTAYMQLSSLTSEDSAVYYCGRDRSSQYYFDYWGQGTTLTVSS
VL: DIVMSQSPSSLAVSAGEKVTMSCKSSQSLLNSRTRKNYLAWYQQKPGQSPKLLIYWASTRESGVPDRFTGSGSGTDFTLTISSVQAEDLAVYFCKQSFILRTFGGGTKLEIK
notes: as for B1
- FACS MFI (human CD3 [8]): 1620 MFI
- FACS MFI (cynomolgus CD3): 2220 MFI

B8: 147C6F3 (antibody, V domains shown)
VH: QVQLQQPGTELVKPGASVKLSCKASGYTFDSYWMHWVKQRPGQGLEWIGNLNPSNGEINYNEKFKHKATLTVDKSSSTAYMQLSSLTSEDSAVYYCSRDRSSQYYFDYWGQGTTLTVSS
VL: DIVMSQSPSSLAVSAGEKVTLSCKSSQSLLNSRTRKNYLAWYQQKSGQSPKLLMYWASTRESGVPDRFTGSGSGTDFTLTITNVQAEDLAVYYCKQSYILRTFGGGTKLEIK
notes: as for B1
- FACS MFI (human CD3 [8]): 1860 MFI
- FACS MFI (cynomolgus CD3): 2230 MFI

B9: 147E11E2 (antibody, V domains shown)
VH: QVQLQQPGTELVKPGTSVKLSCKASGYTFTSYWMHWVKQRPGQGLEWIGNINPSNGATNYNEKFKSKATLTVDKSSSTAYMQLSSLTSEDSAVYYCARDRSSQYYFDYWGQGTTLTVSS
VL: DIVMSQSPSSLAVSAGEKVTMSCKSSQSLLNSRSRKNYLAWYQQKPGQSPKLLIYWASTRESGVPDRFTGSGSGTDFTLTISSVQAEDLAVYYCTQSYTLRTFGGGTKLEIK
notes: as for B1
- FACS MFI (human CD3 [8]): 2450 MFI
- FACS MFI (cynomolgus CD3): 2530 MFI

B10: 140D2B10 (antibody, V domains shown)
VH: QVQLQQPGTELVKPGASVKLSCKASGYTFTSYWMHWVKQRPGQGLEWIGNINPSNGESNYNEKFKSKATLTVDKSSSTAYMQLSSLTSEDYAVYYCARDRSSQYYFDYWGQGTTLTVSS
VL: DIVMSQSPSSLAVSAGEKVTMSCKSSQSLLNSRTRKNYLAWYQQKPGQSPKLLIYWASTRESGVPDRFTGSGSGTDFTLTISSVQAEDLAVYYCKQSYTLRTFGGGTKLEIK
notes: as for B1
- FACS MFI (human CD3 [8]): 872 MFI
- FACS MFI (cynomolgus CD3): 2040 MFI

B11: 127E2D3 (antibody, V domains shown)
VH: QVQLQQPGTELVKPGASVKLSCKASGYTFTSYWMHWVKQRPGEGLEWIGNIYPGSSSINYNEKFKSKATLTVDKSSSTAYMQLSSLTSEDSAVYYCARDRSSQYYFDYWGQGTTLTVSS
VL: DIVMSQSPSSLAVSAGEKVTMSCKSSQSLLNSRTRKNYLAWYQQKPGQSPKLLIYWASTRESGVPDRFTGSGSGTDFTLTISSVQAEDLAVYYCTQSYNLRTFGGGTKLEIK
notes: as for B1
- FACS MFI (human CD3 [8]): 930 MFI
- FACS MFI (cynomolgus CD3): 1920 MFI

B12: 133B4C7 (antibody, V domains shown)
VH: QVQLQQPGTELVKPGASVKLSCKASGYTFTSYWMHWVKQRPGQGLEWIGNINPSNGDTNFNEKFKSKATLTVDKSSSTAYMQLSSLTSEDSAVYYCARDRSSQYYFDYWGQGTTLTVSS
VL: DIVMSQSPSSLAVSAGEKVTMSCNSSQSLLNSRTRKNYLAWYQQKPGQSPKLLIYWASTRESGVPDRFTGSGSGTDFTLTISSVQAEDLAVYYCKQSYTLRTFGGGTKLEIK
notes: as for B1
- FACS MFI (human CD3 [8]): 681 MFI
- FACS MFI (cynomolgus CD3): 1780 MFI
